Assay results published in the domain aggregation screens of Martell et al. (2025).

Assay: soluble fraction after stress (log2 fold change); higher = more stays soluble; pooled small domains, quantitative proteomics
Settings: stress: 75 degC
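Further: 20 min heating vs room temperature control held 20 min.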

Row | Sequence | soluble fraction (log2)
1 | HMGRYVIQIASFSSKNNAIEAADKLGGFVVQSGRFYRVRTGPFATRGEADAALASARRVGYRDAFIDTS | -1.59
2 | HMGSAIAHAIASLPDRYRELLLLKYDTGYSEKEIAQLLGMTEANVKKTIQRAKAKLQTLLDEMEA | -1.43
3 | HMGSAKAQLYDLMNAHQVTRNQIQDIVAEKGYFPAGTPIENYPDDFVKGVLVGAWDQVHKAILDKEI | 0.326
4 | HMGSEISLNAFNIPKGSVSVTAGGTKLVENQDYTVDYTLGRIKILNEGILNSGVPIQVNFENNTLFN | -0.0124
5 | HMGSEYILTIIPTPADATVFINGVKKNSASGVNGQILSWEVTKEGYIPQSGTFTINGKNETIEVVLQPQT | 0.122
6 | HMGSFFSKATAPVRTTGGDGLYKHGSIWFNTSTGRLFVYIPDDRYTGLLDTHNGDIGYWVDVS | -2.53
7 | HMGSFGAMLKRNRKLAGLTQEQLAEKLDVSTVAVQNWESGKNQIRSEKLTKLSYLFNIPLETLIHEMLIS | -1.12
8 | HMGSFISADEALAKALSHAGLDQSAIRELEMDSELDDDVPHYSIDFKSGNLEYEYEISATDGSVLKFEQD | 0.118
9 | HMGSKEQELVILNNILERQLQAINLQKSAAGPMVNLRNVHNTLTKLVEAAGLKNVETYFTDPVIGAAQ | -0.0941
10 | HMGSNTLEDAYKVLGITPDATDDEVRKAYKKMVIQHHPDKVANLGEDVKKAATIKLQEINNAKEIIFKARN | 0.0129
11 | HMGSQSYVAIVNERFKESDIVELGGSVGSRTGDIITLHFRNSSPNELKNITGIVYLQVANKVTPKL | -1.26
12 | HMGSTDTLEDALEAAEKISYPVIIKATAGGGGRGMKVASSLEELKKVYHTTKLEAKNAFGNDQVYIEKYL | 0.162
13 | HMGSTYGISRVDNETSRTHGWLVTIQRRGVIYRKHFSDGVFGGKQRSFAAAKEYRDEVIAAHP | -2.68
14 | HMGSVVATLRKLIIDGHYPAGTRLAEIPVANALGVSRTPVRLAFRTLQQEGLLQTVGKRGIVVRAF | -1.28
15 | HMGSWDDFFNAIRLDNPNTLQALLQRGFDPNTVDQQGTPALMRALQEQSYRAAEVLADHPQI | -0.603
16 | HMGTAGLSPWHKIAVLMIALGPEGASELMRHFGEDEVEQVVQAIADLKNVPSELQDAVLLEMEGALQEG | 0.00911
17 | HMGTDVFIMTGGTRKRGATWSYYFDLGKIDGKRQKKEKGGFKTKKEAETALAKAINEYNNAGA | -0.506
18 | HMGTFIATVEANSLDIYKSMSSNETIGKANKGEVFQILEDMGSGYARVSYNDVEGYLSIRDGDATIEE | 0.0208
19 | HMGTGADQVSWKTGDKVTHKKWGEGTVVKVSGSGNDKELDIAFPQQGVKRLLASFAPIKKVT | -0.0162
20 | HMGTGQTNEKLAVLTNIQKTQEQILLTLGAKNPLVNLKQYRETLAKILSLSGYKNSNEFFLDPM | -0.184
21 | HMGTGTYQVWSANGLGVRMRSGPGTGYRILAVYSVGTSVTVLQKGAYWSYIRVGSRTGYMMNQFLVSG | 0.609
22 | HMGTGVEQGKQYRTLKRDFDGASGIKVNGDFYRLRTSDTGMTELPAGTEVTFERFDGTTAVVHT | 0.0416
23 | HMGTHPGIDSGIISDILALKKELPTRSAAKIITMLTLAGKMEENSIHVKTVNRILYQYGYTRDTLS | -1.92
24 | HMGTITKRTNPSGAVVWRAQIRINKADMPTYSESKTFSKKSLATEWLKRREAEIEANPDLIL | -0.929
25 | HMGTKDVNAAPSAVGRTYDEAIEILNGYKAGYLEEYSDTVPKGTVISQSVQDGQVVIVVSLGPKPS | -0.136
26 | HMGTKVGAPLPGTITEVKVKVGDTVKAGDAVIILEAMKMQNNIEAEVSGTVSSVLVKEGDTVMEGDALITI | -0.0573
27 | HMGTLNLSQAYREWGMAEIEANRDYYGPVRFDDIAFQMSPAGQQLQARFVASYADRLHDAIEGEL | -0.364
28 | HMGTLRPKGTVVFANLPIAADAKEGDMYNISDQFTTTASFKEGAGNVIPAGSNVYRTDDGFWDVL | 0.783

Row | Sequence | soluble fraction (log2)
29 | HMGTPEQSAQFEQVLEELKNVPGPVMKAMQRAQDIYGYLPIEIQSRIGQAFGVSLEEVYGIATFYSQFNL | -2.55
30 | HMGTQKVQVVNGPINVRSGPGPTFEKIGMVEDQAVYQVVSKKDDWFQISLPGNKTAWVAGWLVKEIK | -0.035
31 | HMGTRHPLPYAFAKAHTVLLEDDGDRLLLHAAENSGPSALGEILRLYDVDALERETASTLANRIAVAYAG | 0.175
32 | HMGTSGLTIPRFVSLASGTVHMRAGPGVRYPITWIYKRLGTPLMVMAEHEFWRKVRDAEGTEGWMHRSLLS | 0.0559
33 | HMGTSIMIIIVKPETKKERVNDLIHWIESQNLRTHLSTGDYSTIIGVIGDTSKLDSELIRGLDIVENVKRV | -2.18
34 | HMGTSMDPPVIIVSDGKLIQKGLEVSGLKKQWLYDLIDRKHMKISDIFLLTADKTGKYNLIKRS | -0.0253
35 | HMGTSQSAVKAILAQLISDENKQKPYSDEALSRLLQQQGIDIARRTVAKYREALNIPPAHQRK | 0.26
36 | HMGTSRVQSILFDQSQWTINRAVHWLNTHHFISTKIDKTDKYLRFRQFDPNPDSHHATKRTSQGITFILE | -4.37
37 | HMGTTIAMSKLKQVLRWKEEGYSNRKIAQLVGLNKETVNNYISRANADSLSQKELLQLDDFVLDIRLRG | -1.76
38 | HMGTTTGKVNATGVNFRTGPSTSYSSMGKLGIDTAVTILGKSGDWYQVKVNSTGKTGYVFAKYITITSVV | -1.95
39 | HMGTVIGMGRITAGGVNFRETEGGGVIEKLERDTLVEVLTVPSVIDTTHWYQVRYNNRTGYVQAPFVQLLG | -1.7
40 | HMGTVKWFNATKGFGFIVPSDGGKDVFVHITAVQKAGLQGLNEGQKVSYEVAMERGKAAATNLR | -0.782
41 | HMGTVRFYNKERGFGFVVSDDGESVFLPAKALPDGVSDLSPGTRVDYGAALGKKGSQ | 0.0973
42 | HMGVAAPMPGTITDVRVKVGDRVQPRTVVMMLEAMKMENEIFAGRAGVVSQVAVEKGASVNTGDLLISIDP | -0.311
43 | HMGVAASEVHREKKESSLQWRQSYNVATDQRRQGKTYKEITEFLNGAELKNSKGGTWSISGVRKMLM | 0.0165
44 | HMGVARGQAQVTTRQHVVQPGETLYQISKQYGVTVAEILRYNADIEDNTVKVGQTLQIPTPLP | ≥ 1.04
45 | HMGVDMAPESIVGKKGVAATELRPAGKVEIHGQVYDAVSVGMFIKRGTGVKVVRYEAAQIYVEPE | -0.544
46 | HMGVEALTPRQREVLALMAQGRSNGWIAAELGLSEKAIVQHTSNIYDMLGLAVDADDHRRVLAVIHYLT | -1.19
47 | HMGVENDGYVLPRELKKGDTVLIADLGKEATVLSPVDRNGNVEVLAGAAKTRVKLKNLRLIE | 0.0345
48 | HMGVEVPRGDGSTVVRVRAGSSLADFAERIGADPAALITVLFRMGEMATVNQSLDEDTFKLLGAELGYDVQ | -0.704
49 | HMGVGIAEAMKHVADEDYGDLSSEFQRIFSAVDGGSTLGDAVRAQMRATSSAGLRRTLSVLAMSVE | 0.553
50 | HMGVGTTDERLAVLNQIASRQTEALEKLGPNNPLVGLGQIRNTLSKMLEISGYPDSNQFFKQVPLDYEPPP | 0.156
51 | HMGVIDTLSGPQKAAAILVAIGRPSASRLLKHFNAEDLRKLAGHARTLEPISPLDFEHLVKQFEDSFAEG | -0.874
52 | HMGVIGADIRALRVSRGWTLSDLAEALDRSVGWLSQVERDVSEPALADIRRIAGIFDLPVSFFFSD | -2.64
53 | HMGVLDFSAQLLKHLEMNGGQTPLGDKSPAEEIYAVFGVSKKVFKKAVGDLYRKRLIEISSNGIRMTS | -2.14
54 | HMGVLGVDALAAAAEVSVDTVRYYQHLGLLEPPRREGRRAVYGPSHLARMGEIRRLAAAGFTLDQIRQLAE | -2.81
55 | HMGVPTEQQSLIGKSGIAATDLRPSGKVEIDGKRYDAVSNYAGFIAKGTPISVVRYETGQIYVE | 0.205
